pKd: −log10 of the molar value.
Experiments:
[1] = biological target: ALX148 (human); assay: SPR; hFcRn flowed (0-5000 nM) over ALX proteins captured on a GLC chip with immobilised human CD47 ECD; 25°C; PBS pH 5.8, 0.01% Tween-20; equilibrium analysis; apparent
[2] = biological target: CD47 (Homo sapiens) (UniProt Q08722); conditions: cited from earlier work
Chain of UniProt Q08722 (Q08722 19-323): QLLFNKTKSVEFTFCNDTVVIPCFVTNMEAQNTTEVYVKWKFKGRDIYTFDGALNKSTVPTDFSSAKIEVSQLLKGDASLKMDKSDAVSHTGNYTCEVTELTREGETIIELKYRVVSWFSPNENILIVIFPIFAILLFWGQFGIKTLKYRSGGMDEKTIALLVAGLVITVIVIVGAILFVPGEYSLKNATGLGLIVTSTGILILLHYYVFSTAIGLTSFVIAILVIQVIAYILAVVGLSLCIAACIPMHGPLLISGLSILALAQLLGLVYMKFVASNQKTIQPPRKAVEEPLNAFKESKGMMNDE

Substance: human neonatal Fc receptor (FcRn) (from UniProt P55899 24-297)
- pKd [1]: 6.24

Substance: SIRPα (from UniProt P78324)
- pKd [2]: 6.00

From article PMC6104973
